Laboratory results from article PMC12263435, “Mechanistic basis for PYROXD1-mediated protection of the human tRNA ligase complex against oxidative inactivation” (Nature Structural & Molecular Biology, 2025).

What was measured:
RTCB (with Archease) = biological target: T1, RTCB (with Archease) (Homo sapiens, UniProt Q9Y3I0); assay: guanylylation of RTCB, intact-protein LC-MS; format: biochemical; settings: covalent GMP adduct on RTCB His428, 2.5 mM MnCl2, 0.5 mM GTP, 20 mM HEPES pH 8.0, 25 °C
T1 construct: RTCB, N-terminal tag cut by TEV, Sf9; Archease residues 27-168, His6-MBP cut, E. coli; with Protein archease
T1 sequence (Q9Y3I0 1-505): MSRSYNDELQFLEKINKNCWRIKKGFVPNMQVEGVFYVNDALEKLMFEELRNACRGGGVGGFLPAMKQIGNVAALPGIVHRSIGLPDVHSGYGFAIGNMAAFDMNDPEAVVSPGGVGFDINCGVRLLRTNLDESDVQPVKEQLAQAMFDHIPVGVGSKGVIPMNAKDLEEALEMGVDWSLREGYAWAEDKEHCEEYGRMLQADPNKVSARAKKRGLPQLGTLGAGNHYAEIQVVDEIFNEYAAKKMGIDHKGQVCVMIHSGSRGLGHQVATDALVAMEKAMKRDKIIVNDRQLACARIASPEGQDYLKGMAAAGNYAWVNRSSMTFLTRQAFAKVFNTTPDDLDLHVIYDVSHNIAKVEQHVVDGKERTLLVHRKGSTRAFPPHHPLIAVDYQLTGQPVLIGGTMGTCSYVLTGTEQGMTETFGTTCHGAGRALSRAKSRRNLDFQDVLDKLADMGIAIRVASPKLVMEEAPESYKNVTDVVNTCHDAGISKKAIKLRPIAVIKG
T1 sequence (Q8IWT0 27-167 partner): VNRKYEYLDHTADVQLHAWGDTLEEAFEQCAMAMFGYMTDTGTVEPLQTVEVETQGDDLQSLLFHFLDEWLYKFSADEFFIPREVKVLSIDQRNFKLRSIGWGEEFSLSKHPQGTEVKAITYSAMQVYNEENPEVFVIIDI

purified protein = substrate: NC(=O)C1=CN([C@@H]2O[C@H](COP(=O)(O)OP(=O)(O)OC[C@H]3O[C@@H](n4cnc5c(N)ncnc54)[C@H](O)[C@@H]3O)[C@@H](O)[C@H]2O)C=CC1; assay: purified protein; format: biochemical, Homo sapiens; settings: aerobic (O2 as acceptor), 20 mM Tris-HCl pH 8.0, 150 mM KCl, 0.05% Tween-20, 22 °C
RTCB = biological target: T2, RTCB (human, UniProt Q9Y3I0 1-505); assay: cryo-EM structure; 100 µM RTCB mixed 1:1 with 100 µM PYROXD1 in 20 mM HEPES pH 8.0, 150 mM NaCl, 0.5 mM TCEP, 5 mM MgCl2, 0.5 mM NADH; SEC; single-particle cryo-EM; settings: both partners purified
T2 construct: human RTCB (UniProt Q9Y3I0); inserted into the 438B plasmid (N-terminal hexahistidine tag, TEV site); the tag is removed by TEV in either case; also called apo-RTCB; un-guanylylated RTCB; source: Sf9 insect cells (baculovirus), purified (Ni-NTA, TEV cleavage, SEC); not shown: His6, N-terminal, cleaved
T2 sequence: T1 sequence (Q9Y3I0 1-505)

StrepII–GFP–RTCB = biological target: T3, StrepII–GFP–RTCB (human, UniProt Q9Y3I0 1-505); assay: pull-down; dissociation kinetics: complex formed with 0.5 mM NADH and 5 mM MgCl2, held on Strep-Tactin beads via StrepII–GFP–RTCB, NADH and unbound PYROXD1 washed out, bound PYROXD1 followed over time under aerobic conditions; Coomassie Blue; settings: both partners purified
T3 construct: human RTCB (UniProt Q9Y3I0), catalytic subunit of the tRNA ligase complex; inserted into the 438-Rgfp plasmid; a TEV site lies between GFP and RTCB; In the dissociation assay it is called 2× StrepII–GFP–RTCB; also called immobilized RTCB; 2× StrepII–GFP–RTCB; source: Sf9 insect cells (baculovirus), purified (Strep-Tactin, SEC); not shown: StrepII, N-terminal, kept; super folder green fluorescent …
T3 sequence: T1 sequence (Q9Y3I0 1-505)

## Nc1nc2c(ncn2[C@@H]2O[C@H](COP(=O)(O)OP(=O)(O)OP(=O)(O)O)[C@@H](O)[C@H]2O)c(=O)[nH]1 [GTP]
RTCB (with Archease)
  guanylylation of RTCB, intact-protein LC-MS: generating a mixture of guanylylated and un-guanylylated RTCB

B1: PYROXD1 (enzyme, human)
chain: MEAARPPPTAGKFVVVGGGIAGVTCAEQLATHFPSEDILLVTASPVIKAVTNFKQISKILEEFDVEEQSSTMLGKRFPNIKVIESGVKQLKSEEHCIVTEDGNQHVYKKLCLCAGAKPKLICEGNPYVLGIRDTDSAQEFQKQLTKAKRIMIIGNGGIALELVYEIEGCEVIWAIKDKAIGNTFFDAGAAEFLTSKLIAEKSEAKIAHKRTRYTTEGRKKEARSKSKADNVGSALGPDWHEGLNLKGTKEFSHKIHLETMCEVKKIYLQDEFRILKKKSFTFPRDHKSVTADTEMWPVYVELTNEKIYGCDFIVSATGVTPNVEPFLHGNSFDLGEDGGLKVDDHMHTSLPDIYAAGDICTTSWQLSPVWQQMRLWTQARQMGWYAAKCMAAASSGDSIDMDFSFELFAHVTKFFNYKVVLLGKYNAQGLGSDHELMLRCTKGREYIKVVMQNGRMMGAVLIGETDLEETFENLILNQMNLSSYGEDLLDPNIDIEDYFD
notes: human PYROXD1 (UniProt Q8WU10), amplified from HeLa cDNA, in pGEX-6P-1; FAD-containing flavoprotein; also called wild-type PYROXD1; WT; source: E. coli BL21(DE3), purified (Glutathione Sepharose, 3C cleavage, SEC); not shown: GST, N-terminal, cleaved
Purified protein
  Km: 611.0 ± 98.3 µM
RTCB
  stoichiometry N: 1
StrepII–GFP–RTCB
  half-life of the complex upon NADH removal: ~2 min
